Columns and labels:
Settings in all cases: tags: N-terminal His-tag
His-tagged HMGB1 [1] = biological target: T1, His-tagged HMGB1 (UniProt P09429 P09429:1-215); assay: SPR; 150 nM protein; listed in Table 7
Description: (§1) The ability of each of the aforementioned RNA aptamers to bind to HMGB1 in which His-tag was added to the N-terminus (His-tag-added HMGB1) was examined. For the analysis of the aforementioned binding ability, a BIACORE (registered trademark) X (manufactured by GE Healthcare) was used according to its instruction manual.
First, a sensor chip (trade name: Sensor Chip SA, manufactured by GE Heathcare) specially made for a BIACORE was set on the aforementioned BLACORE (registered trademark) X. Biotinylate deoxythymidine (5 μmol/L) was injected into the flow cell 2 of the aforementioned sensor chip using a running buffer and subjected to binding until the signal intensity (RU: resonance unit) reached about 1000 RU. For the aforementioned biotinylated deoxythymidine, 20-base-long deoxythymidine in which the 5′ end was biotinylated was used. […] Simultaneously with the injection of the aforementioned His-tag-added HMGB1 and washing with the aforementioned running buffer, signal intensity was measured. […] In a comparative example, signal intensity was measured in the same manner except that the aforementioned comparative example RNA was used in place of the aforementioned example RNA aptamers.

His-tagged HMGB1 [2] = biological target: T1, His-tagged HMGB1; assay: SPR; 635 nM protein, 500 mM NaCl
Description: (§2) First, a sensor chip (trade name: Sensor Chip SA, manufactured by GE Heathcare) specially made for a BIACORE was set on the aforementioned BLACORE (registered trademark) X. Biotinylate deoxythymidine (5 μmol/L) was injected into the flow cell 2 of the aforementioned sensor chip using a running buffer and subjected to binding until the signal intensity (RU: resonance unit) reached about 1000 RU. For the aforementioned biotinylated deoxythymidine, 20-base-long deoxythymidine in which the 5′ end was biotinylated was used. Then, 10 μg/mL of an RNA aptamer was injected at a flow rate of 20 μL/min for 1 min into the aforementioned flow cells 1 and 2 of the aforementioned chip using a running buffer and subjected to binding until the signal intensity reached about 1000 RU. Next, 675 nmol/L of the aforementioned His-tag-added HMGB1 was injected at a flow rate of 20 μL/min for 30 sec using the aforementioned running buffer, and under the same conditions the aforementioned running buffer was allowed to flow continuously for washing. Simultaneously with the injection of the aforementioned His-tag-added HMGB1 and washing with the aforementioned running buffer, signal intensity was measured. The aforementioned running buffer was composed of 20 mmol/L of HEPES, 500 mmol/L of NaCl, 0.1 mmol/L of MgCl₂, and 0.1% Triton X-100 (registered trademark), with the pH thereof being 7.2. As a blocking agent for suppressing nonspecific binding, tRNA was used in a concentration of 1 mg/mL. In a comparative example, signal intensity was measured in the same manner except that the aforementioned comparative example RNA was used in place of the aforementioned example RNA aptamers.
An analysis of ability to bind to His-tag-added HMGB1 was carried out in the same manner as in (2) above of the aforementioned Example 1 except that the aforementioned RNA aptamers were used, the concentration of the aforementioned His-tag-added HMGB1 was 635 nmol/L, and the injection time of the aforementioned His-tag-added HMGB1 was 60 seconds. […]

His-tagged HMGB1 [3] = biological target: T1, His-tagged HMGB1; assay: SPR; comparable to unmodified R8c6_1 at 500 and 150 mM NaCl
His-tagged HMGB1 [4] = biological target: T1, His-tagged HMGB1; assay: SPR; 150 nM protein; excellent binding
Description: as §1
as §2, with “675 nmol/L of the aforementioned His-tag-added HMGB1 was injected at a flow rate” left out

His-tagged HMGB1 [5] = biological target: T1, His-tagged HMGB1; assay: SPR; superior to R8c6_1; 160 nM protein
Description: (§3) First, a sensor chip (trade name: Sensor Chip SA, manufactured by GE Heathcare) specially made for a BIACORE was set on the aforementioned BLACORE (registered trademark) X. Biotinylate deoxythymidine (5 μmol/L) was injected into the flow cell 2 of the aforementioned sensor chip using a running buffer and subjected to binding until the signal intensity (RU: resonance unit) reached about 1000 RU. For the aforementioned biotinylated deoxythymidine, 20-base-long deoxythymidine in which the 5′ end was biotinylated was used. Then, 10 μg/mL of an RNA aptamer was injected at a flow rate of 20 μL/min for 1 min into the aforementioned flow cells 1 and 2 of the aforementioned chip using a running buffer and subjected to binding until the signal intensity reached about 1000 RU. Next, […] of 20 μL/min for 30 sec using the aforementioned running buffer, and under the same conditions the aforementioned running buffer was allowed to flow continuously for washing. Simultaneously with the injection of the aforementioned His-tag-added HMGB1 and washing with the aforementioned running buffer, signal intensity was measured. […] In a comparative example, signal intensity was measured in the same manner except that the aforementioned comparative example RNA was used in place of the aforementioned example RNA aptamers. […]

His-tagged HMGB1 [6] = biological target: T1, His-tagged HMGB1; assay: SPR; 200 nM protein; comparable to unmodified R8c6_1 at 150 mM NaCl
His-tagged HMGB1 [7] = biological target: T1, His-tagged HMGB1; assay: SPR; 200 nM protein, 150 mM NaCl; excellent binding
Description: as §3

T1 sequence (P09429 whole entry, one chain of several): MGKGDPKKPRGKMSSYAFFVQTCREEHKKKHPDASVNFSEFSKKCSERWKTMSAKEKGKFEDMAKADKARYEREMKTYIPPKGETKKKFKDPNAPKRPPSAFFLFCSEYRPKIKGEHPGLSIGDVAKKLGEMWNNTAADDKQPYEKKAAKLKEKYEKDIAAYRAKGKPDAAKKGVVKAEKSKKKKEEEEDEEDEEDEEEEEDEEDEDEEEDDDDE

GGGUAAGACACGUAGCACCAGUGUGCCUGGACGUGCGU (ssRNA, 2'-F on all C and U) [2'F-R8c6_1-25-S6A3]: binds (His-tagged HMGB1 [1]).

B1: R8c6_1-4 (ssRNA)
RNA: GGGACGCUCACGUACGCUCAGAGUACAGUAAGACACGUAGCACCAGUCUGACGUUUGUCGUCAGUGCCUGGACGUG
B1: binds (His-tagged HMGB1 [2]).

B2: 2'F-R8c6_1-18 (ssRNA)
RNA: GGGAGUACAGUAAGACACGUAGCACCAGUCUGACGUUUGUCGUCAGUGCCUGGACGUGCAGU
modifications: 2'-F on all C and U
B2: binds (His-tagged HMGB1 [3]).

GGGAGUACAGUAAGACACGUAGCACCAGUGUGCCUGGACGUGCAGU (ssRNA, 2'-F on all C and U) [2'F-R8c6_1-18-S6]: binds (His-tagged HMGB1 [4]).

GGGACAGUAAGACACGUAGCACCAGUGCCUGGACGUGCAGU (ssRNA, 2'-F on all C and U) [2'F-R8c6_1-21-S8]: binds (His-tagged HMGB1 [4]).

B3: R8c6_1-18-S2 (ssRNA)
RNA: GGGAGUACAGUAAGACACGUAGCACCAGUCGCGUUUGUCGCGUGCCUGGACGUGCAGU
B3: binds (His-tagged HMGB1 [5]).

B4: R8c6_1-3 (ssRNA)
RNA: GGGACGCUCACGUACGCUCAGAGUACAGUAAGACACGUAGCACCAGUCUGACGUUUGUCGUCAGUGCCUGGACGUGC
B4: binds (His-tagged HMGB1 [2]).

B5: 2'F-R8c6_1 (2'F-CU-R8c6_1) (ssRNA)
RNA: GGGACGCUCACGUACGCUCAGAGUACAGUAAGACACGUAGCACCAGUCUGACGUUUGUCGUCAGUGCCUGGACGUGCAGU
modifications: 2'-F on all C and U
B5: binds (His-tagged HMGB1 [6]).

B6: 2'F-C-R8c6_1 (ssRNA)
RNA: GGGACGCUCACGUACGCUCAGAGUACAGUAAGACACGUAGCACCAGUCUGACGUUUGUCGUCAGUGCCUGGACGUGCAGU
modifications: 2'-F on all C
B6: binds (His-tagged HMGB1 [7]).

B7: 2'F-U-R8c6_1 (ssRNA)
RNA: GGGACGCUCACGUACGCUCAGAGUACAGUAAGACACGUAGCACCAGUCUGACGUUUGUCGUCAGUGCCUGGACGUGCAGU
modifications: 2'-F on all U
B7: binds (His-tagged HMGB1 [7]).

B8: R8c6_1-1 (ssRNA)
RNA: GGGACGCUCACGUACGCUCAGAGUACAGUAAGACACGUAGCACCAGUCUGACGUUUGUCGUCAGUGCCUGGACGUGCAG
B8: binds (His-tagged HMGB1 [2]).

GGGACAGUAAGACACGUAGCACCAGUGUGCCUGGACGUGCAGU (ssRNA, 2'-F on all C and U) [2'F-R8c6_1-21-S6]: binds (His-tagged HMGB1 [4]).

B9: R8c6_1-25 (ssRNA)
RNA: GGGUAAGACACGUAGCACCAGUCUGACGUUUGUCGUCAGUGCCUGGACGUGCAGU
B9: binds (His-tagged HMGB1 [5]).

B10: 2'F-R8c6_1-25 (ssRNA)
RNA: GGGUAAGACACGUAGCACCAGUCUGACGUUUGUCGUCAGUGCCUGGACGUGCAGU
modifications: 2'-F on all C and U
B10: binds (His-tagged HMGB1 [4]).

— patent publication US20120208867, “HMGB1 BINDING NUCLEIC ACID MOLECULE AND APPLICATIONS THEREOF” (published 2012)
